In article PMC5045424, “The La protein counteracts cisplatin-induced cell death by stimulating protein synthesis of anti-apoptotic factor Bcl2”:

How the values were obtained:
[1] = target: T1, La (LARP3, La/SSB), recombinant His-tagged wildtype (human, UniProt P05455 1-408); experiment: fluorescence polarization; 25 nM RNA; EMSA and FP: 25 nM FAM-RNA, 0-600 nM La; competition FP: 200 nM La; buffer, salt, pH and temperature not given (cited to ref 21); conditions: protein: recombinant; tags: His; label: 5' 6-FAM; stem-loop embedding the AUG (mfold)
T1 sequence: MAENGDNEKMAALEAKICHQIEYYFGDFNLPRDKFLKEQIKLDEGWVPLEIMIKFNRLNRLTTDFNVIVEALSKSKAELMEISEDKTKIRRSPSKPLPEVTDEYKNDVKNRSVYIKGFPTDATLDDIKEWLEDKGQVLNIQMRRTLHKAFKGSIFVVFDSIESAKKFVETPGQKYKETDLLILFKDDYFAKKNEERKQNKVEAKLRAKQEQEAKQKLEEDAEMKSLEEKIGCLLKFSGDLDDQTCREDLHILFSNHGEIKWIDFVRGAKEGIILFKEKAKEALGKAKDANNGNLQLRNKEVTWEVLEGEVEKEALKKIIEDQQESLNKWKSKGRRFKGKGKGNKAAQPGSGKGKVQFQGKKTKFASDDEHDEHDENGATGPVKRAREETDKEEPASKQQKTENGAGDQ

[2] = target: T1, La (LARP3, La/SSB), recombinant …; experiment: EMSA; 25 nM RNA, 0-600 nM La; EMSA and FP: 25 nM FAM-RNA, 0-600 nM La; competition FP: 200 nM La; buffer, salt, pH and temperature not given (cited to ref 21); conditions: protein: recombinant; tags: His; label: 5' 6-FAM; stem-loop embedding the AUG (mfold)

B1: Bcl2_WT RNA oligonucleotide, FAM-labeled (-24 to +15) (structured_RNA)
RNA: CCCGUUGCUUUUCCUCUGGGAAGGAUGGCGCACGCUGGG
Binder B1 has a Kd [1] of 60.1 ± 4.5 nM and a Kd [2] of 50.5 ± 5.9 nM.
